# The supplement of paper PMC7877785
# ± gives the uncertainty stated by the source.
# Assay: self-splicing fitness, log relative to wild type (ln ratio); higher = more splicing; Tetrahymena group I intron in knt gene, E. coli kanamycin selection, DiMSum; sequences stand for … in CUCUCU…GGAGGGAAAAGUUAUCAGGCAUGCACCUGGUAGCUAGUCUUUAAACCAAUAGAUUGCAUCGGUUUAAAAGGCAAGACCGUCAAAUUGCGGGAAAGGGGUCAACAGCCGUUCAGUACCAAGUCUCAGGGGAAACUUUGAGAUGGCCUUGCAAAGGGUAUGGUAAUAAGCUGACGGACAUGGUCCUAACCACGCAGCCAAGUCCUAAGUCAACAGAUCUUCUGUUGAUAUGGAUGCAGUUCACAGACUAAAUGUCGGUCGGGGAAGAUGUAUUCUUCUCAUAAGAUAUAGUCGGACCUCUCCUUAAUGGGAGCUAGCGGAUGAAGUGAUGCAACACUGGAGCCGCUGGGAACUAAUUUGUAUGCGAAAGUAUAUUGAUUAGUUUUGGAGUACUCGUGGUCG
# In short: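 Pooled colonies went to amplicon sequencing on an Illumina HiSeq 2500 after six replicate transformations. The plates were LB agar with 100 μg/mL carbenicillin, 50 μM IPTG and 0.2% rhamnose, with or without 25 μg/mL kanamycin, incubated overnight at 37°C or 30°C. The E. coli BL21(DE3) library had all eight P1ex-region intron nucleotides randomised, the intron placed in the knt kanamycin-resistance gene on pET-22b(+). DiMSum fitness is the error-weighted combination of replicate fold changes, kanamycin against none, normalised to wild type.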
Sequence,self-splicing fitness (ln) (30 °C),self-splicing fitness (ln) (37 °C)
AAAUAGCAAUAUUACGUAGC,-3.97 ± 0.33,-1.9 ± 0.31
AAAUAGCAAUAUUACGUGAC,-1.53 ± 0.2,–
AAAUAGCAAUAUUACGUGUA,-2.49 ± 0.091,-1.44 ± 0.09
AAAUAGCAAUAUUACGUGUU,-1.72 ± 0.083,-1.75 ± 0.11
AACAAGCAAUAUUACGAAGA,-2.78 ± 0.12,-2.12 ± 0.14
AACAAGCAAUAUUACGACAU,-0.261 ± 0.01,0.0604 ± 0.032
AACAAGCAAUAUUACGAGCC,-3.25 ± 0.47,-2.09 ± 0.36
AACAAGCAAUAUUACGAGUU,-3.35 ± 0.099,-1.5 ± 0.091
AACAAGCAAUAUUACGAUAC,-3.73 ± 0.19,-1.71 ± 0.12
AACAAGCAAUAUUACGAUCG,-1.4 ± 0.076,-0.996 ± 0.097
AACAAGCAAUAUUACGCCAU,-2.66 ± 0.11,-2.08 ± 0.13
AACAAGCAAUAUUACGCCGA,-1.45 ± 0.12,-1.27 ± 0.12
AACAAGCAAUAUUACGCCGG,-0.692 ± 0.075,-0.963 ± 0.12
AACAAGCAAUAUUACGCGUG,-1.35 ± 0.04,-0.814 ± 0.056
AACAAGCAAUAUUACGGGUC,-1.68 ± 0.14,-1.65 ± 0.17
AACAAGCAAUAUUACGGUGG,-1.84 ± 0.06,-0.813 ± 0.073
AACAAGCAAUAUUACGUCAG,-3.64 ± 0.16,-2.39 ± 0.14
AACAAGCAAUAUUACGUCCA,-1.12 ± 0.068,-0.468 ± 0.076
AACAAGCAAUAUUACGUCUA,-0.68 ± 0.053,0.247 ± 0.063
AACAAGCAAUAUUACGUGAG,-1.74 ± 0.05,-1.01 ± 0.067
AACCAGCAAUAUUACGACAG,-2.65 ± 0.083,-0.775 ± 0.099
AACCAGCAAUAUUACGACUU,0.018 ± 0.059,0.437 ± 0.077
AACCAGCAAUAUUACGAGAG,-3.44 ± 0.15,-2.06 ± 0.12
AACCAGCAAUAUUACGAGUC,-1.82 ± 0.1,-0.825 ± 0.11
AACCAGCAAUAUUACGAUAA,-1.35 ± 0.058,-0.457 ± 0.069

Sequence,self-splicing fitness (ln) (30 °C),self-splicing fitness (ln) (37 °C)
AACCAGCAAUAUUACGAUGA,-0.753 ± 0.069,-0.507 ± 0.08
AACCAGCAAUAUUACGCAGC,-2.4 ± 0.11,-1.29 ± 0.11
AACCAGCAAUAUUACGCCAG,-2.46 ± 0.14,-1.72 ± 0.18
AACCAGCAAUAUUACGCCCG,-0.353 ± 0.1,-0.271 ± 0.17
AACCAGCAAUAUUACGCGUC,-2.08 ± 0.089,-1.12 ± 0.095
AACCAGCAAUAUUACGGACA,-0.462 ± 0.077,-0.0476 ± 0.095
AACCAGCAAUAUUACGGCCA,-0.365 ± 0.067,-0.114 ± 0.085
AACCAGCAAUAUUACGGGAG,-0.751 ± 0.036,-0.132 ± 0.051
AACCAGCAAUAUUACGGGCC,-1.4 ± 0.082,-0.824 ± 0.11
AACCAGCAAUAUUACGGGUA,-0.823 ± 0.045,-0.376 ± 0.055
AACCAGCAAUAUUACGGUAC,-2.82 ± 0.12,-1.1 ± 0.088
AACCAGCAAUAUUACGGUCC,-0.721 ± 0.089,-0.491 ± 0.12
AACCAGCAAUAUUACGUCCU,0.026 ± 0.043,-0.134 ± 0.053
AACCAGCAAUAUUACGUGAC,-2.59 ± 0.087,-1.37 ± 0.1
AACCAGCAAUAUUACGUUGG,-3.14 ± 0.12,-2.42 ± 0.13
AACGAGCAAUAUUACGAACC,-3.57 ± 0.49,-1.66 ± 0.35
AACGAGCAAUAUUACGACCG,-3.46 ± 0.34,–
AACGAGCAAUAUUACGACGC,-2 ± 0.14,-0.785 ± 0.18
AACGAGCAAUAUUACGACGU,-0.822 ± 0.09,-0.593 ± 0.089
AACGAGCAAUAUUACGAGGA,-2.36 ± 0.28,-2.34 ± 0.42
AACGAGCAAUAUUACGCCGA,-2.83 ± 0.25,-2.42 ± 0.17
AACGAGCAAUAUUACGGAUC,-2.26 ± 0.19,-2.31 ± 0.17
AACGAGCAAUAUUACGGCAA,-1.49 ± 0.27,-1.9 ± 0.24
AACGAGCAAUAUUACGGCAU,-1.91 ± 0.1,-0.446 ± 0.12
AACGAGCAAUAUUACGGCGU,-1.84 ± 0.098,-0.572 ± 0.088

Sequence,self-splicing fitness (ln) (30 °C),self-splicing fitness (ln) (37 °C)
AACGAGCAAUAUUACGGCUG,-1.6 ± 0.14,-0.126 ± 0.16
AACGAGCAAUAUUACGGGAG,-3.14 ± 0.17,-2.72 ± 0.19
AACGAGCAAUAUUACGGGAU,-4.34 ± 0.19,-3.33 ± 0.23
AACGAGCAAUAUUACGGUUC,-2.87 ± 0.18,-2.09 ± 0.19
AACGAGCAAUAUUACGUAAA,-3 ± 0.24,-2.49 ± 0.33
AACGAGCAAUAUUACGUAGC,-3.51 ± 0.19,-2.44 ± 0.17
AACGAGCAAUAUUACGUCAA,-3.08 ± 0.23,-3.35 ± 0.3
AACGAGCAAUAUUACGUGAU,-3.03 ± 0.18,-0.913 ± 0.13
AACGAGCAAUAUUACGUUCU,-2.19 ± 0.14,-1.93 ± 0.2
AACUAGCAAUAUUACGACGC,-0.567 ± 0.1,-0.205 ± 0.15
AACUAGCAAUAUUACGACGU,-0.165 ± 0.069,0.653 ± 0.1
AACUAGCAAUAUUACGCCAG,-1.99 ± 0.16,-0.848 ± 0.23
AACUAGCAAUAUUACGCCAU,-2.6 ± 0.15,-2.42 ± 0.18
AACUAGCAAUAUUACGCCCA,-0.951 ± 0.14,0.0227 ± 0.17
AACUAGCAAUAUUACGCCCC,0.0551 ± 0.17,-0.32 ± 0.18
AACUAGCAAUAUUACGCCUU,-0.414 ± 0.073,0.376 ± 0.1
AACUAGCAAUAUUACGCGCU,-1.79 ± 0.12,-0.454 ± 0.12
AACUAGCAAUAUUACGCUGA,-2.18 ± 0.14,-1.91 ± 0.13
AACUAGCAAUAUUACGGAAA,-2.54 ± 0.2,-0.697 ± 0.13
AACUAGCAAUAUUACGGCAC,-0.766 ± 0.079,-0.192 ± 0.11
AACUAGCAAUAUUACGGCAU,-0.42 ± 0.062,-0.127 ± 0.075
AACUAGCAAUAUUACGUAAC,0.169 ± 0.15,-1.5 ± 0.3
AACUAGCAAUAUUACGUACU,-0.0487 ± 0.053,0.151 ± 0.073
AACUAGCAAUAUUACGUAUC,-3.83 ± 0.34,-2.38 ± 0.29
AACUAGCAAUAUUACGUAUU,-2.04 ± 0.082,-0.837 ± 0.11
